According to article PMC5292422, “NBS-LRR Protein Pik-H4 Interacts with OsBIHD1 to Balance Rice Blast Resistance and Growth by Coordinating Ethylene-Brassinosteroid Pathway”:

T1: OsBIHD1 207-527 (HD domain) (Oryza sativa (rice; Pik-H4 NIL?), UniProt Q6QUW0 207-527)
T1 sequence: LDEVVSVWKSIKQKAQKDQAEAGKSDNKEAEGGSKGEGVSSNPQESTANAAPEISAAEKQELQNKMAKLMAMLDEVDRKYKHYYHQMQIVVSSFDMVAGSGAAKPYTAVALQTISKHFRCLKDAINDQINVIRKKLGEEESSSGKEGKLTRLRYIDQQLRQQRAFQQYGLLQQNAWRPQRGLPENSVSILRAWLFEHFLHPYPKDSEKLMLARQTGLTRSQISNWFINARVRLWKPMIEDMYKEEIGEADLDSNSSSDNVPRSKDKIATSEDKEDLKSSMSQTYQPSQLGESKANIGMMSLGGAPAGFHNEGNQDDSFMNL


Biological target: T1, OsBIHD1 207-527 (HD domain)
Test: EMSA; EMSA: 25 C, 30 min, binding buffer of Beyotime Chemiluminescent EMSA Kit GS009 (composition, salt and pH not stated); 10% polyacrylamide gel, 0.5x TBE
Conditions: protein: recombinant; tags: His (pET28a); label: biotin 3'

Row | Binder | binding result
1 | OsACO3 promoter TGTCA probe (dsDNA) DNA 1: AAATTCTGTCATCATCA DNA 2: TGATGATGACAGAATTT | binds
2 | CYP734A2 promoter TGTCA probe (dsDNA) DNA 1: TGCATTGTCAGTTAC DNA 2: GTAACTGACAATGCA | binds
